# Laboratory results: PMC8346517, “The intervening domain is required for DNA-binding and functional identity of plant MADS transcription factors” (Nature Communications, 2021)
# B1: SEP3^MI (MADS-box and I domain of …3, residues 1-90) (domain or fragment)
# chain: not shown
# notes: His6-MBP fusion from the vector pETM41, cleaved with TEV protease; residues 1-18 and the 17 C-terminal residues are disordered in the crystal; also called SEP3 MI domain; source: E. coli BL21 Codon Plus, purified (Ni-NTA, heparin, TEV cleavage, Ni-NTA, heparin)
# Molecular target: the molecule itself
# Assay: crystal structure; SEP3 MI at 6 mg/ml, without DNA; 0.2 M potassium sodium tartrate, 0.1 M bis-tris propane pH 7.5, 20% PEG 3350, 4 °C; space group C222(1), dimers formed by crystallographic symmetry
protein,measurement,value
B1,binding result,binds
